Consider one molecule from patent US20230399394A1 (SUNSHINE GUOJIAN PHARMACEUTICAL SHANGHAI, published 2023).

The target in test [1] is T1, IL-33 mutant protein S63A (human, UniProt O95760 112-270).
T1 construct: Prokaryotic expression
T1 chain: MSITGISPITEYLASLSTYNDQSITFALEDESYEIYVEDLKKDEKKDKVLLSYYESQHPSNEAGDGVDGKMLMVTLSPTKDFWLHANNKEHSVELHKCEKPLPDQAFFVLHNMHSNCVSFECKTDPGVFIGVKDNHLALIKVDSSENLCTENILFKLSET
The test is described as follows: ELISA as Example 9; row S63A against WT-3. As to the method: (§1) SA protein was diluted to 2 μg/mL to coat ELISA plate at 100 μL/well overnight at 4° C. The plate was washed with PBST (PBS containing 0.05% Tween20) for 3 times, and blocked with 2% BSA prepared in PBS at 200 μL/well, at room temperature for 2 h. After the plate was washed twice with PBST, IL-33-his-biotin protein was diluted to 1 μg/mL with 1% BSA prepared in PBST, and was added to ELISA plate at 100 μL/well. The plate was incubated at room temperature for 1 h, and each monoclonal antibody was diluted with 1% BSA prepared in PBST in a 3-fold gradient. The highest concentration of antibody was 10 μg/mL, and the antibody was diluted for 12 gradients. Each diluted monoclonal antibody was added to ELISA wells with 100 μL/well, and the plate was incubated at room temperature for 1 h. Each sample was added to duplicate wells in parallel. The plate was washed with PBST for 3 times, and HRP-anti human IgG Fc secondary antibody prepared with PBST was diluted at an appropriate ratio, and was added to ELISA wells at 100 μL/well. […] Each reaction solution was shaken uniformly and OD450 nm was read on a microplate reader. The data was analyzed and EC₅₀ was calculated.
(§2) Subsequently, according to the experimental method of Example 9, the affinity of the above mutant proteins to 874F7-Hu1 was determined, and IL-33 proteins (WT-1, WT-2, WT-3, and WT-4) without any mutation were set as controls.

For test [2], the target named is T2, IL-33 mutant protein V49A (human, UniProt O95760 112-270).
T2 construct: Prokaryotic expression
T2 chain: T1 chain with V49A, A63S
Put plainly: ELISA as Example 9; row V49A against WT-2. The procedure:
as §1, §2
Background: In an ELISA, binding on a coated surface is turned into a signal by an enzyme label.

Test [3] deals with T3, IL-33 mutant protein Q57A (human, UniProt O95760 112-270).
T3 construct: Prokaryotic expression
T3 chain: T1 chain with Q57A, A63S
Put plainly: ELISA as Example 9; row Q57A. As to the method: as §1, §2

Another test concerns the target T4, Cynomolgus IL-33-his (cynomolgus, UniProt A0A2K5W3I1 112-269, biotinylated in the ELISA of Example 6).
T4 construct: Bought protein; also called cynomolgus IL-33 protein; Cynomolgus monkeys IL-33
T4 sequence: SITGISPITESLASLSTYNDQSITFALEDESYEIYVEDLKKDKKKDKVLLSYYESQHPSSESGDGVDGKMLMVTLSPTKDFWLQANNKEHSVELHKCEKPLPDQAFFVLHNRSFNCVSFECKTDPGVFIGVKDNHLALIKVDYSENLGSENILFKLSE
Put plainly: SPR Biacore 8K as Example 14, antibody captured, antigen as analyte. As to the method:
(§3) A chip with covalently coupled Protein A/G (purchased from GE Healthcare, catalog number BR-1005-30) was used to capture each antibody to be tested, and the relevant operating parameters were as follows: The antibody concentration was […], the contact time was 75 s, the flow rate was […], and the regeneration contact time was 30 s. The IL-33-his antigen was diluted with HBS-EP pH7.4 buffer solution (purchased from GE Healthcare, catalog number BR-1006-69). The maximum concentration was 50 nM, and diluted to 0.39 nM by two-fold dilution. Duplicate wells and 0 concentration point well were set, and 6M guanidine hydrochloride solution was used as the regeneration buffer. The sample was injected on Biacore 8K according to the following parameters, the binding time was 180 s, the dissociation time was 900 s, the flow rate was 30 μL/min, and the regeneration contact time was 30 s. After running, Biacore 8K Evaluation Software was used to analyze the data according to the “1:1 binding kinetics model”, and the binding kinetics parameters of each antibody to IL-33 were obtained.
(§4) The experimental methods were referred to Example 14, in which the antigens cynomolgus IL-33 protein (purchased from Sino catalog number 90912-CNAE) and mouse IL-33 protein (purchased from R&D, 3626-ML-010/CF) were used, and human IL-33 protein was used as the control. Both 864F3-Hu4 and 874F7-Hu1 cross-react with cynomolgus IL-33 protein, and are consistent with the characteristics of each antibody binding to human IL-33 protein.
In general terms: Surface plasmon resonance follows binding to a sensor surface in real time, without labels.

In another test the target is T5, Mouse IL-33 protein (mouse, UniProt Q8BVZ5 109-266).
T5 construct: Bought protein
T5 sequence (looked up): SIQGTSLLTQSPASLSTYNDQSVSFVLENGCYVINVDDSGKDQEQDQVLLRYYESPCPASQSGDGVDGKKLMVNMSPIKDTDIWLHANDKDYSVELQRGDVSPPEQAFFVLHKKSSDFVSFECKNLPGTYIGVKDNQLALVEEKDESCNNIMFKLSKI
The test is described as above. As to the method: as §3, §4

Positions count from the first letter of the chain named.

B1: 874F7-Hu1 (antibody, human IgG4 S228P, kappa)
heavy: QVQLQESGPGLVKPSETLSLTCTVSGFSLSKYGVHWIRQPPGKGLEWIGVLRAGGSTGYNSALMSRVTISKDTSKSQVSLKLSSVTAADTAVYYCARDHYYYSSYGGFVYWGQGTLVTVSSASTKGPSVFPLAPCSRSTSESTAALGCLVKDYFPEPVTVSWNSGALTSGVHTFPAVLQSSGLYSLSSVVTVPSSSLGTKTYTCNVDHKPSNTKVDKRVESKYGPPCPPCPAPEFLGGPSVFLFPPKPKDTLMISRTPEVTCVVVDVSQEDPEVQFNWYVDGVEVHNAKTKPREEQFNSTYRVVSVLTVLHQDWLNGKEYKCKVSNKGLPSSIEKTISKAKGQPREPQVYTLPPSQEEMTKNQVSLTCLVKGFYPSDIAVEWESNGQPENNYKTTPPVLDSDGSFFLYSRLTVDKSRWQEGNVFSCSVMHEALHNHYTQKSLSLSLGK
light: DIQMTQSPSSVSASVGDRVTITCLASQTIGAWLAWYQQKPGKSPKLLIYAATRLADGVPSRFSGSGSGTDFTLTISSLQPEDFATYYCQQLDSSPYTFGQGTKVEIKRTVAAPSVFIFPPSDEQLKSGTASVVCLLNNFYPREAKVQWKVDNALQSGNSQESVTEQDSKDSTYSLSSTLTLSKADYEKHKVYACEVTHQGLSSPVTKSFNRGEC
notes: also called 874F7-Hul; humanized antibody 874F7-Hu1
As for B1, the Affinity decline ratio in test [1] stood at 0.9 fold. The Affinity decline ratio in test [2] is greater than 25 fold. Moreover, in test [3], the EC50 – broadly, the concentration giving half of the maximal effect – is 0.12 nM. Besides, in the test with Cynomolgus IL-33-his, binding was put at a Kd of 1.27 nM; the koff (usually the rate constant with which the complex falls apart) stood at 0.000349 s⁻¹; the kon – broadly, the rate constant with which the complex forms – came to 273000 M⁻¹ s⁻¹. Further, in the test with Mouse IL-33 protein, the affinity, expressed as Kd, was 33.2 nM; the koff turned out to be 0.00212 s⁻¹; the kon came to 64000 M⁻¹ s⁻¹.
